Source: US20250276018A1 (AFFYIMMUNE THERAPEUTICS, published 2025)
Read-outs that look alike come from different tables or passages of the source.

Legend:
[1] = biological target: T1, AF647 labeled c-met protein (UniProt P08581 25-932, limits assumed, labeled with AlexaFluor 647 (AF647)); test: flow cytometry, AF647-labeled c-met protein titrated on CAR-T cells (Round 1)
T1 construct: Soluble labeled c-met protein titrated on CAR-T cells
Procedure: (§1) Binding of labeled c-MET to CAR-T cells expressing the affinity tuned c-MET scFvs was evaluated by transducing lentivirus anti-c-MET CAR particles into human T cells to form c-MET CAR-T cells incubated with AF647-labeled c-MET. […] Following a 48 hr. incubation at 37° C., the culture media was brought up to […] per well and incubated at 37° C. for 10 days.
(§2) Cells were stained on ice for 30 mins and then washed with PBS. After washing, residually bound protein on CAR T cells were measured on a flow cytometer (Beckman, CytoFLEX®). The resulting binding data was fit using a non-linear regression analysis on GraphPad Prism to calculate half effective dose concentration (EC₅₀) values. The results of this analysis are shown in FIGS. 2-5 and Tables 2-5 below.

[2] = biological target: T1, AF647 labeled c-met protein; test: flow cytometry, EC50 relative to parental Affy6 CAR-T cells (Round 1)
Procedure: as §1, §2

[3] = biological target: T2, c-MET on human target cells (human, UniProt P08581 25-1390); test: cell-based or functional assay
T2 sequence (P08581 25-1390): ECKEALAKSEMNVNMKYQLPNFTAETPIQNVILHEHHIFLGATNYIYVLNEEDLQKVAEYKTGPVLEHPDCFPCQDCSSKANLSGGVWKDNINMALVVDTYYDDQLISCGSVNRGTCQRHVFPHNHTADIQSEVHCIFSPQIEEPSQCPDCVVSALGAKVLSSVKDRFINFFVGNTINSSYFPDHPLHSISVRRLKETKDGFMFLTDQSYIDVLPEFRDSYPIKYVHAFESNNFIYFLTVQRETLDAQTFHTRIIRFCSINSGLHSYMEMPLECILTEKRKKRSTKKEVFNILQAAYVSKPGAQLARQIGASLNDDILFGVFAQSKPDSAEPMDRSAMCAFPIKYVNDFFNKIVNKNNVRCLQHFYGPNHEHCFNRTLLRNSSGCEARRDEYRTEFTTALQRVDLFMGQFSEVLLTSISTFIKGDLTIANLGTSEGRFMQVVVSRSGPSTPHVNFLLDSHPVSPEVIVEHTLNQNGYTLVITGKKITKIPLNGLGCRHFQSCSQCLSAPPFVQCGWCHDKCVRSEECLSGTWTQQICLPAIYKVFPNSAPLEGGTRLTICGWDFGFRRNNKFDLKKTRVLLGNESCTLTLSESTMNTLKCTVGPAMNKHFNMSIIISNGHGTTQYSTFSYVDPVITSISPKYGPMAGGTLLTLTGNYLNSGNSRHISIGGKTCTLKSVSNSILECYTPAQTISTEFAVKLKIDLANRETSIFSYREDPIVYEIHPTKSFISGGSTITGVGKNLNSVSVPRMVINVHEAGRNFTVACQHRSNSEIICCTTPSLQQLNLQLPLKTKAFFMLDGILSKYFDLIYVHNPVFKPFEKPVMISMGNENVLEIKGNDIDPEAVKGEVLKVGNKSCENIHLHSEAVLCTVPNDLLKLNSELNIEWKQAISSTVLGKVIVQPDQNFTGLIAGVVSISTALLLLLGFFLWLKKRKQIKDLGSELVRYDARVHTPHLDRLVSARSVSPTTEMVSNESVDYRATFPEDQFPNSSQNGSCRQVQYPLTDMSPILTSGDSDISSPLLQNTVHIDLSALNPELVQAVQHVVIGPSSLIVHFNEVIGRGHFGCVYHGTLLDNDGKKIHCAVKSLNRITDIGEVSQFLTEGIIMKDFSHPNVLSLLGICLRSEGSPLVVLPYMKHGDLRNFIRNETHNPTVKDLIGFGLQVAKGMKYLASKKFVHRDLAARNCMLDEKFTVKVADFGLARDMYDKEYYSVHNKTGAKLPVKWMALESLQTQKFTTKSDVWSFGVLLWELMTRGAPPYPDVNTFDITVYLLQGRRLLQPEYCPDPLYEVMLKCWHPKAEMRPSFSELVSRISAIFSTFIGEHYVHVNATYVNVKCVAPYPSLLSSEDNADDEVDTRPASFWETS

[4] = biological target: T2, c-MET on human target cells; test: cell-based or functional assay; remark: listed apart in the source
[5] = biological target: T2, c-MET on human target cells; test: cell-based or functional assay; remark: listed apart in the source
[6] = biological target: T2, c-MET on human target cells; test: cell-based or functional assay; remark: listed apart in the source
[7] = biological target: T2, c-MET on human target cells; test: cell-based or functional assay; remark: listed apart in the source
[8] = biological target: T2, c-MET on human target cells; test: cell-based or functional assay; remark: listed apart in the source
[9] = biological target: T2, c-MET on human target cells; test: cell-based or functional assay; remark: listed apart in the source
[10] = biological target: T2, c-MET on human target cells; test: cell-based or functional assay; remark: listed apart in the source
[11] = biological target: T2, c-MET on human target cells; test: cell-based or functional assay; remark: listed apart in the source
[12] = biological target: T2, c-MET on human target cells; test: cell-based or functional assay; remark: listed apart in the source
[13] = biological target: T1, AF647 labeled c-met protein; test: flow cytometry, EC50 relative to parental Affy7 CAR-T cells (Round 1)
Procedure: as §1, §2

[14] = biological target: T2, c-MET on human target cells; test: cell-based or functional assay; remark: listed apart in the source
[15] = biological target: T2, c-MET on human target cells; test: cell-based or functional assay; remark: listed apart in the source

T1 sequence (P08581 25-932 limits assumed): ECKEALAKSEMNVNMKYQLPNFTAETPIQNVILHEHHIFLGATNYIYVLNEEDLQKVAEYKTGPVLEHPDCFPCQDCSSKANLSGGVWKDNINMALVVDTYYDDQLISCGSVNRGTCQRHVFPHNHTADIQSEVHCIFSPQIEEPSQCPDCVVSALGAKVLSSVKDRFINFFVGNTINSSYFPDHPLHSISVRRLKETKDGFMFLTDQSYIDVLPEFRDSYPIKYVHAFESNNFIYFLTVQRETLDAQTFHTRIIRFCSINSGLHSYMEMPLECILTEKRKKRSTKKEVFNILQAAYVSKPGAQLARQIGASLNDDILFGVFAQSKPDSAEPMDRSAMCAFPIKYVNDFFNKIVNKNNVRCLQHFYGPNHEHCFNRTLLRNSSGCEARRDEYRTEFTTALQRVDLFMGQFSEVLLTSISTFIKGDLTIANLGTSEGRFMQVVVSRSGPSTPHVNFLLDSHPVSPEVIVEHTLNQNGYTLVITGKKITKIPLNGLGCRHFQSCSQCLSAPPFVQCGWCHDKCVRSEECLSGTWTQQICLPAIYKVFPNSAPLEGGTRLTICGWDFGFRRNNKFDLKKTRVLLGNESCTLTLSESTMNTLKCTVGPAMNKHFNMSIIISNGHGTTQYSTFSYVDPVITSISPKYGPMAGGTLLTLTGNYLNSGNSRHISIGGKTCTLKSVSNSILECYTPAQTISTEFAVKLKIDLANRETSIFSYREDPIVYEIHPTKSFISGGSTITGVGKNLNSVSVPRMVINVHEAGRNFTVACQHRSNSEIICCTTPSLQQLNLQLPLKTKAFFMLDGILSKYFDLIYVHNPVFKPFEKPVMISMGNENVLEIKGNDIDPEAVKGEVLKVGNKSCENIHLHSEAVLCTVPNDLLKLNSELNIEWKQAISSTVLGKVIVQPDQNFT

B1: Affy6-I3A CAR (other)
chain: GSEQKLISEEDLGSQVQLVQSGAEVKKPGASVKVSCKASGYIFTAYTMHWVRQAPGQGLEWMGWIKPNNGLANYAQKFQGRVTMTRDTSISTAYMELSRLRSDDTAVYYCARSEATTEFDYWGQGTLVTVSSGGGGSGGGGSGGGGSDIVLTQSPDSLAVSLGERATINCKSSESVDSYANSFMHWYQQKPGQPPKLLIYRASTRESGVPDRFSGSGSRTDFTLTISSLQAEDVAVYYCQQSKEDPLTFGGGTKVEIKASTTTPAPRPPTPAPTIASQPLSLRPEACRPAAGGAVHTRGLDFACDFWVLVVVGGVLACYSLLVTVAFIIFWVRSKRSRLLHSDYMNMTPRRPGPTRKHYQPYAPPRDFAAYRSLRVKFSRSADAPAYQQGQNQLYNELNLGRREEYDVLDKRRGRDPEMGGKPRRKNPQEGLYNELQKDKMAEAYSEIGMKGERRRGKGHDGLYQGLSTATKDTYDALHMQALPPR
notes: CAR on transduced human T cells; I to A in HC CDR3; P2A remnant not included; also called MycTAffy6-I3A CAR-SSTR2
**Q.** Which EC50 [1] does the source give for B1 here?
**A.** 20.9 µM

**Q.** And the “Fold Change” value [2]?
**A.** 956 fold

**Q.** And the “percent cytotoxicity, H1993, 24 hrs” value [3]?
**A.** 73.1%

**Q.** And the “percent cytotoxicity, H1993, 48 hrs” value [3]?
**A.** 95.3%

**Q.** What about the “percent cytotoxicity, H1993, 72 hrs” value [3] of the same binder?
**A.** 98.9%

B2: Affy7-Y6A CAR (other)
chain: GSEQKLISEEDLGSQVQLQQSGPELVRPGASVKMSCRASGYTFTSYWLHWVKQRPGQGLEWIGMIDPSNSDTRFNPNFKDKATLNVDRSSNTAYMLLSSLTSADSAVYYCATAGSYVSPLDYWGQGTSVTVSSGGGGSGGGGSGGGGSDIMMSQSPSSLTVSVGEKVTVSCKSSQSLLYTSSQKNYLAWYQQKPGQSPKLLIYWASTRESGVPDRFTGSGSGTDFTLTITSVKADDLAVYYCQQYYAYPWTFGGGTKLEIKRASTTTPAPRPPTPAPTIASQPLSLRPEACRPAAGGAVHTRGLDFACDFWVLVVVGGVLACYSLLVTVAFIIFWVRSKRSRLLHSDYMNMTPRRPGPTRKHYQPYAPPRDFAAYRSLRVKFSRSADAPAYQQGQNQLYNELNLGRREEYDVLDKRRGRDPEMGGKPRRKNPQEGLYNELQKDKMAEAYSEIGMKGERRRGKGHDGLYQGLSTATKDTYDALHMQALPPR
notes: CAR on transduced human T cells; Y to A in HC CDR3; P2A remnant not included; also called Affy-Y6A; MycT-Affy7-Y6A CAR-SSTR2
**Q.** For B2, which EC50 [1] is on record?
**A.** 3.3 µM

**Q.** What about the “cytotoxicity, Normal Human Liver Cells, 8 hrs” value [4] of the same binder?
**A.** 19.3

**Q.** And the “cytotoxicity, Normal Human Liver Cells, 16 hrs” value [4]?
**A.** 29.8

**Q.** And the “cytotoxicity, Normal Human Liver Cells, 24 hrs” value [4]?
**A.** 44.8

**Q.** And the “cytotoxicity, Normal Human Liver Cells, 32 hrs” value [4]?
**A.** 53.9

**Q.** And the “cytotoxicity, Normal Human Liver Cells, 40 hrs” value [4]?
**A.** 57.5

**Q.** What about the “cytotoxicity, Normal Human Liver Cells, 48 hrs” value [4] of the same binder?
**A.** 58.5

**Q.** And the “cytotoxicity, Normal Human Colon Cells, 8 hrs” value [5]?
**A.** 13.1

**Q.** What about the “cytotoxicity, Normal Human Colon Cells, 16 hrs” value [5] of the same binder?
**A.** 25

**Q.** And the “cytotoxicity, Normal Human Colon Cells, 24 hrs” value [5]?
**A.** 25.6

**Q.** And the “cytotoxicity, Normal Human Colon Cells, 32 hrs” value [5]?
**A.** 35.8

**Q.** What about the “cytotoxicity, Normal Human Colon Cells, 40 hrs” value [5] of the same binder?
**A.** 45.4

**Q.** What about the “cytotoxicity, Normal Human Colon Cells, 48 hrs” value [5] of the same binder?
**A.** 45.6

**Q.** And the “cytotoxicity, Normal Human Kidney Cells, 8 hrs” value [6]?
**A.** 15.8

**Q.** And the “cytotoxicity, Normal Human Kidney Cells, 16 hrs” value [6]?
**A.** 27.1

**Q.** And the “cytotoxicity, Normal Human Kidney Cells, 24 hrs” value [6]?
**A.** 29.4

**Q.** What about the “cytotoxicity, Normal Human Kidney Cells, 32 hrs” value [6] of the same binder?
**A.** 31.1

**Q.** What about the “cytotoxicity, Normal Human Kidney Cells, 40 hrs” value [6] of the same binder?
**A.** 42.6

**Q.** What about the “cytotoxicity, Normal Human Kidney Cells, 48 hrs” value [6] of the same binder?
**A.** 54.7

**Q.** And the “percent cytotoxicity, H1993, 24 hrs” value [7]?
**A.** 85.7%

**Q.** What about the “percent cytotoxicity, H1993, 48 hrs” value [7] of the same binder?
**A.** 96.9%

**Q.** What about the “percent cytotoxicity, H1993, 72 hrs” value [7] of the same binder?
**A.** 99.2%

**Q.** What about the “cytotoxicity, Normal Human Lung Cells, 8 hrs” value [8] of the same binder?
**A.** 30.6

**Q.** What about the “cytotoxicity, Normal Human Lung Cells, 16 hrs” value [8] of the same binder?
**A.** 32.6

**Q.** What about the “cytotoxicity, Normal Human Lung Cells, 24 hrs” value [8] of the same binder?
**A.** 40.1

**Q.** What about the “cytotoxicity, Normal Human Lung Cells, 32 hrs” value [8] of the same binder?
**A.** 48.3

**Q.** What about the “cytotoxicity, Normal Human Lung Cells, 40 hrs” value [8] of the same binder?
**A.** 56.5

**Q.** What about the “cytotoxicity, Normal Human Lung Cells, 48 hrs” value [8] of the same binder?
**A.** 64

**Q.** And the “cytotoxicity, Normal Human Lung Cells, 8 hrs” value [9]?
**A.** 13.1

**Q.** And the “cytotoxicity, Normal Human Lung Cells, 16 hrs” value [9]?
**A.** 31.3

**Q.** What about the “cytotoxicity, Normal Human Lung Cells, 24 hrs” value [9] of the same binder?
**A.** 47.6

**Q.** And the “cytotoxicity, Normal Human Lung Cells, 32 hrs” value [9]?
**A.** 50

**Q.** And the “cytotoxicity, Normal Human Lung Cells, 40 hrs” value [9]?
**A.** 53

**Q.** What about the “cytotoxicity, Normal Human Lung Cells, 47 hrs” value [9] of the same binder?
**A.** 52.1

**Q.** What about the “percent cytotoxicity, SNU638, 24 hrs” value [10] of the same binder?
**A.** 79.2%

**Q.** What about the “percent cytotoxicity, SNU638, 48 hrs” value [10] of the same binder?
**A.** 93.5%

**Q.** And the “percent cytotoxicity, SNU638, 72 hrs” value [10]?
**A.** 98.7%

**Q.** And the “cytotoxicity, Normal Human Liver Cells, 8 hrs” value [11]?
**A.** 14.2

**Q.** What about the “cytotoxicity, Normal Human Liver Cells, 16 hrs” value [11] of the same binder?
**A.** 26.3

**Q.** And the “cytotoxicity, Normal Human Liver Cells, 24 hrs” value [11]?
**A.** 33.1

**Q.** What about the “cytotoxicity, Normal Human Liver Cells, 32 hrs” value [11] of the same binder?
**A.** 40.1

**Q.** What about the “cytotoxicity, Normal Human Liver Cells, 40 hrs” value [11] of the same binder?
**A.** 55

**Q.** And the “cytotoxicity, Normal Human Liver Cells, 48 hrs” value [11]?
**A.** 65

**Q.** What about the “cytotoxicity, Normal Human Kidney Cells, 8 hrs” value [12] of the same binder?
**A.** 29.2

**Q.** What about the “cytotoxicity, Normal Human Kidney Cells, 16 hrs” value [12] of the same binder?
**A.** 39.3

**Q.** And the “cytotoxicity, Normal Human Kidney Cells, 24 hrs” value [12]?
**A.** 48.9

**Q.** What about the “cytotoxicity, Normal Human Kidney Cells, 32 hrs” value [12] of the same binder?
**A.** 53.9

**Q.** What about the “cytotoxicity, Normal Human Kidney Cells, 40 hrs” value [12] of the same binder?
**A.** 60.5

**Q.** What about the “cytotoxicity, Normal Human Kidney Cells, 48 hrs” value [12] of the same binder?
**A.** 65.9

**Q.** What about the “Fold Change” value [13] of the same binder?
**A.** 66 fold

**Q.** And the “percent cytotoxicity, Hs746T, 24 hrs” value [14]?
**A.** 88.3%

**Q.** What about the “percent cytotoxicity, Hs746T, 48 hrs” value [14] of the same binder?
**A.** 98.4%

**Q.** What about the “percent cytotoxicity, Hs746T, 72 hrs” value [14] of the same binder?
**A.** 98.8%

**Q.** What about the “cytotoxicity, Normal Human Colon Cells, 8 hrs” value [15] of the same binder?
**A.** 26.5

**Q.** What about the “cytotoxicity, Normal Human Colon Cells, 16 hrs” value [15] of the same binder?
**A.** 36.3

**Q.** What about the “cytotoxicity, Normal Human Colon Cells, 24 hrs” value [15] of the same binder?
**A.** 42.5

**Q.** What about the “cytotoxicity, Normal Human Colon Cells, 32 hrs” value [15] of the same binder?
**A.** 51.5

**Q.** And the “cytotoxicity, Normal Human Colon Cells, 40 hrs” value [15]?
**A.** 62.7

**Q.** And the “cytotoxicity, Normal Human Colon Cells, 48 hrs” value [15]?
**A.** 70.7
